The source of these data is US9102922B2, “Trehalose phosphorylases and their use in the biocatalytic production of trehalose-analogues and glycosyl phosphates” (Universiteit Gent, priority 2010, dated 2015).

One data set relates to intestinal trehalase. Particulars: cited from earlier work.
The target in another data set is TP from C. pacificum (Caldanaerobacter subterraneus, UniProt Q8RBK9). Kind of data set: Synthetic activity of TP on monosaccharide acceptors (released phosphate, molybdate assay). The data set is classed as biochemical, Carboxydibrachium pacificum. The note with it: acceptor 500 mM; 60° C. and pH 6; D-glucose = 100. Here is the method:
(§1) The phosphorolytic activity of the enzyme was determined using a discontinuous assay in which the released glucose is converted by glucose oxidase and peroxidase (GOD-POD)(Werner et al., 1970). The activity was assayed in 30 mM phosphate buffer at pH 7 and 60° C., using 30 mM disaccharide as substrate. The synthetic activity of the enzyme was determined using a discontinuous assay in which the released phosphate is complexed by molybdate and ascorbic acid (Gawronski and Benson, 2004). The activity was assayed in 50 mM MES buffer at pH 6 and 60° C., using 30 mM β-glucose-1-phosphate as donor and 500 mM of acceptor substrates.

Data set [1] deals with trehalose phosphorylase (TP). The data set can be described thus: Phosphorolytic activity of the TP on other α-glucobioses (GOD-POD assay). It counts as biochemical, Caldanaerobacter subterraneus. The protocol: as §1
Data set [2] is described as follows: Donor specificity: phosphorolysis of lactotrehalose by CsTP variants (release of βGal1P and βGlc1P). The data set is classed as biochemical.
Data set [3] in a line: Kinetic parameters of TP variants on glucose as acceptor. It counts as biochemical. The note with it: Glc as acceptor; 60° C. and pH 6. Here is the method:
(§2) […] The synthetic activity of the enzyme was determined using a discontinuous assay in which the released phosphate is complexed by molybdate and ascorbic acid (Gawronski and Benson, 2004). […] Site-saturation mutagenesis was performed with degenerate primers (NNK) as described by […] et al. (2008), and random mutagenesis was performed with the GeneMorph II EZClone Domain Mutagenesis Kit (Stratagene) according to the manufacturer's instructions. The resulting DNA libraries were transformed into E. coli XL10-Gold, after which the cells were grown on solid LB medium in a Petri dish. Colonies were then transferred to 96-well microtiter plates containing liquid LB medium, in which enzyme expression was induced. Enzyme was extracted by the addition of lysis buffer with a liquid handling robot (Freedom EVO 200, Tecan) and the crude cell extracts were used for enzyme screening. Acceptor screening was performed with the phosphomolybdate assay described above. […] The clones with the highest activity were sequenced to identify the introduced mutations. The improved enzyme variants were then produced and purified as described for the wild-type enzyme, to allow a more detailed characterization.

Data set [4] in a line: Kinetic parameters of TP variants on galactose as acceptor. The data set is classed as biochemical. Particulars: Gal as acceptor; 60° C. and pH 6. Here is the method: as §2
Setting [5] is: 100 mM lactotrehalose, pH 7 and 60° C.

Chain of TP from C. pacificum (Q8RBK9 entry or part of it): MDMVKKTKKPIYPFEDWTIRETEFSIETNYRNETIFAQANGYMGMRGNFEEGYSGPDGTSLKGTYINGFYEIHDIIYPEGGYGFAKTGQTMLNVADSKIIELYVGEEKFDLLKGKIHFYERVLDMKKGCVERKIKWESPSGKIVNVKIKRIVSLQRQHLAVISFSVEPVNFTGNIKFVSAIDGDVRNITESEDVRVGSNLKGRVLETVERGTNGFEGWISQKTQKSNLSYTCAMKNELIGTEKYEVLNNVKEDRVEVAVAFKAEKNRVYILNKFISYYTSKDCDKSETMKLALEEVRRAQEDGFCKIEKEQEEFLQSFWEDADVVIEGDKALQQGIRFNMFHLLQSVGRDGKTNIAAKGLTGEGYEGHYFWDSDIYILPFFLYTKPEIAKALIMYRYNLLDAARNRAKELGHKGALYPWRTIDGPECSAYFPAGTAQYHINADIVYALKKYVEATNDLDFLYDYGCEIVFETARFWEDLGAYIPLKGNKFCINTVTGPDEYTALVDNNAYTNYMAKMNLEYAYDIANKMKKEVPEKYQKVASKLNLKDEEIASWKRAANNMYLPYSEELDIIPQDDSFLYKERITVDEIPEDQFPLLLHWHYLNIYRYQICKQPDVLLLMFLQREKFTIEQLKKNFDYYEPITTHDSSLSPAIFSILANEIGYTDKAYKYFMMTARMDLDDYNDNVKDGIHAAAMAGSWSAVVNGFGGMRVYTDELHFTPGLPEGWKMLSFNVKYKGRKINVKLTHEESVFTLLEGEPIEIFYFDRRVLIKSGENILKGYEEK

Turning to `OC[C@H]1O[C@H](O[C@H]2O[C@H](CO)[C@@H](O)[C@H](O)[C@H]2O)[C@H](O)[C@@H](O)[C@H]1O` [lactotrehalose, Galactose-α-1,1-α-glucose], in the data set on intestinal trehalase, the “effect on intestinal trehalase” value is given as “competitive inhibitor” and the “hydrolysis by intestinal trehalase” value is “not hydrolysed”.

On to `O=C[C@@H](O)[C@@H](O)[C@H](O)CO` [D-Lyxose], for which the “Relative activity (%)” value at TP from C. pacificum was found to be 1%.

For `OC[C@H]1O[C@H](O[C@H]2C(O)O[C@H](CO)[C@@H](O)[C@@H]2O)[C@H](O)[C@@H](O)[C@@H]1O` (some centres unmarked) [kojibiose], the “Activity towards other α-glucobioses” value in data set [1] is on record as “could not be detected”.

Regarding `O=C[C@@H](O)[C@H](O)[C@H](O)CO` [D-Arabinose], the “Relative activity (%)” value on TP from C. pacificum was determined as 2%.

`OC[C@H]1O[C@H](O[C@H]2[C@H](O)[C@@H](O)C(O)O[C@@H]2CO)[C@H](O)[C@@H](O)[C@@H]1O` (mixture of isomers) [maltose]: the “Activity towards other α-glucobioses” value in data set [1] is “could not be detected”.

B1: L649G: CsTP variant, leucine at position 649 of SEQ ID N° 1 substituted for glycine (protein, listed as Caldanaerobacter subterraneus)
chain: MDMVKKTKKPIYPFEDWTIRETEFSIETNYRNETIFAQANGYMGMRGNFEEGYSGPDGTSLKGTYINGFYEIHDIIYPEGGYGFAKTGQTMLNVADSKIIELYVGEEKFDLLKGKIHFYERVLDMKKGCVERKIKWESPSGKIVNVKIKRIVSLQRQHLAVISFSVEPVNFTGNIKFVSAIDGDVRNITESEDVRVGSNLKGRVLETVERGTNGFEGWISQKTQKSNLSYTCAMKNELIGTEKYEVLNNVKEDRVEVAVAFKAEKNRVYILNKFISYYTSKDCDKSETMKLALEEVRRAQEDGFCKIEKEQEEFLQSFWEDADVVIEGDKALQQGIRFNMFHLLQSVGRDGKTNIAAKGLTGEGYEGHYFWDSDIYILPFFLYTKPEIAKALIMYRYNLLDAARNRAKELGHKGALYPWRTIDGPECSAYFPAGTAQYHINADIVYALKKYVEATNDLDFLYDYGCEIVFETARFWEDLGAYIPLKGNKFCINTVTGPDEYTALVDNNAYTNYMAKMNLEYAYDIANKMKKEVPEKYQKVASKLNLKDEEIASWKRAANNMYLPYSEELDIIPQDDSFLYKERITVDEIPEDQFPLLLHWHYLNIYRYQICKQPDVLLLMFLQREKFTIEQLKKNFDYYEPITTHDSSGSPAIFSILANEIGYTDKAYKYFMMTARMDLDDYNDNVKDGIHAAAMAGSWSAVVNGFGGMRVYTDELHFTPGLPEGWKMLSFNVKYKGRKINVKLTHEESVFTLLEGEPIEIFYFDRRVLIKSGENILKGYEEK
B1: the “donor preference in phosphorolysis of lactotrehalose” value in data set [2] is listed as “preferentially produced βGal1P”. Further, in data set [2] (setting [5]), the “Ratio βGal1P/βGlc1P” value is given as 2.6, the “Release of βGal1P” value is 0.22 U/mg and the “Release of βGlc1P” value is reported as 0.09 U/mg. Also, the “fold increase in the ratio of beta-galactose-1-phosphate over beta-glucose-1-phosphate release from lactotrehalose” value in data set [2] (compared with wild type) is 60 fold.

B2: A442V: CsTP mutant, Ala442 of SEQ ID N° 1 into Val (protein, listed as Caldanaerobacter subterraneus)
chain: MDMVKKTKKPIYPFEDWTIRETEFSIETNYRNETIFAQANGYMGMRGNFEEGYSGPDGTSLKGTYINGFYEIHDIIYPEGGYGFAKTGQTMLNVADSKIIELYVGEEKFDLLKGKIHFYERVLDMKKGCVERKIKWESPSGKIVNVKIKRIVSLQRQHLAVISFSVEPVNFTGNIKFVSAIDGDVRNITESEDVRVGSNLKGRVLETVERGTNGFEGWISQKTQKSNLSYTCAMKNELIGTEKYEVLNNVKEDRVEVAVAFKAEKNRVYILNKFISYYTSKDCDKSETMKLALEEVRRAQEDGFCKIEKEQEEFLQSFWEDADVVIEGDKALQQGIRFNMFHLLQSVGRDGKTNIAAKGLTGEGYEGHYFWDSDIYILPFFLYTKPEIAKALIMYRYNLLDAARNRAKELGHKGALYPWRTIDGPECSAYFPAGTAQYHINVDIVYALKKYVEATNDLDFLYDYGCEIVFETARFWEDLGAYIPLKGNKFCINTVTGPDEYTALVDNNAYTNYMAKMNLEYAYDIANKMKKEVPEKYQKVASKLNLKDEEIASWKRAANNMYLPYSEELDIIPQDDSFLYKERITVDEIPEDQFPLLLHWHYLNIYRYQICKQPDVLLLMFLQREKFTIEQLKKNFDYYEPITTHDSSLSPAIFSILANEIGYTDKAYKYFMMTARMDLDDYNDNVKDGIHAAAMAGSWSAVVNGFGGMRVYTDELHFTPGLPEGWKMLSFNVKYKGRKINVKLTHEESVFTLLEGEPIEIFYFDRRVLIKSGENILKGYEEK
As for B2, the Km (as a rule, the substrate concentration at which the rate is half of its maximum) was 2.3 mM in data set [3] and 70.2 mM in data set [4]. Moreover, the values for the kcat in data set [3] and in data set [4] were 67 s⁻¹ and 52 s⁻¹, respectively.

B3: N659Y: CsTP mutant at position 659 of SEQ ID N° 1 (protein, listed as Caldanaerobacter subterraneus)
chain: MDMVKKTKKPIYPFEDWTIRETEFSIETNYRNETIFAQANGYMGMRGNFEEGYSGPDGTSLKGTYINGFYEIHDIIYPEGGYGFAKTGQTMLNVADSKIIELYVGEEKFDLLKGKIHFYERVLDMKKGCVERKIKWESPSGKIVNVKIKRIVSLQRQHLAVISFSVEPVNFTGNIKFVSAIDGDVRNITESEDVRVGSNLKGRVLETVERGTNGFEGWISQKTQKSNLSYTCAMKNELIGTEKYEVLNNVKEDRVEVAVAFKAEKNRVYILNKFISYYTSKDCDKSETMKLALEEVRRAQEDGFCKIEKEQEEFLQSFWEDADVVIEGDKALQQGIRFNMFHLLQSVGRDGKTNIAAKGLTGEGYEGHYFWDSDIYILPFFLYTKPEIAKALIMYRYNLLDAARNRAKELGHKGALYPWRTIDGPECSAYFPAGTAQYHINADIVYALKKYVEATNDLDFLYDYGCEIVFETARFWEDLGAYIPLKGNKFCINTVTGPDEYTALVDNNAYTNYMAKMNLEYAYDIANKMKKEVPEKYQKVASKLNLKDEEIASWKRAANNMYLPYSEELDIIPQDDSFLYKERITVDEIPEDQFPLLLHWHYLNIYRYQICKQPDVLLLMFLQREKFTIEQLKKNFDYYEPITTHDSSLSPAIFSILAYEIGYTDKAYKYFMMTARMDLDDYNDNVKDGIHAAAMAGSWSAVVNGFGGMRVYTDELHFTPGLPEGWKMLSFNVKYKGRKINVKLTHEESVFTLLEGEPIEIFYFDRRVLIKSGENILKGYEEK
In the case of B3, the Michaelis constant (Km) in data set [3] came to 1.2 mM; in data set [4], 46.3 mM. Also, the kcat (as a rule, the maximal rate divided by the concentration of active sites) in data set [3] amounted to 46 s⁻¹; in data set [4] it was 51 s⁻¹.

B4: K450S: CsTP mutant, lysine at position 450 of SEQ ID N° 1 substituted for serine (protein, listed as Caldanaerobacter subterraneus)
chain: MDMVKKTKKPIYPFEDWTIRETEFSIETNYRNETIFAQANGYMGMRGNFEEGYSGPDGTSLKGTYINGFYEIHDIIYPEGGYGFAKTGQTMLNVADSKIIELYVGEEKFDLLKGKIHFYERVLDMKKGCVERKIKWESPSGKIVNVKIKRIVSLQRQHLAVISFSVEPVNFTGNIKFVSAIDGDVRNITESEDVRVGSNLKGRVLETVERGTNGFEGWISQKTQKSNLSYTCAMKNELIGTEKYEVLNNVKEDRVEVAVAFKAEKNRVYILNKFISYYTSKDCDKSETMKLALEEVRRAQEDGFCKIEKEQEEFLQSFWEDADVVIEGDKALQQGIRFNMFHLLQSVGRDGKTNIAAKGLTGEGYEGHYFWDSDIYILPFFLYTKPEIAKALIMYRYNLLDAARNRAKELGHKGALYPWRTIDGPECSAYFPAGTAQYHINADIVYALKSYVEATNDLDFLYDYGCEIVFETARFWEDLGAYIPLKGNKFCINTVTGPDEYTALVDNNAYTNYMAKMNLEYAYDIANKMKKEVPEKYQKVASKLNLKDEEIASWKRAANNMYLPYSEELDIIPQDDSFLYKERITVDEIPEDQFPLLLHWHYLNIYRYQICKQPDVLLLMFLQREKFTIEQLKKNFDYYEPITTHDSSLSPAIFSILANEIGYTDKAYKYFMMTARMDLDDYNDNVKDGIHAAAMAGSWSAVVNGFGGMRVYTDELHFTPGLPEGWKMLSFNVKYKGRKINVKLTHEESVFTLLEGEPIEIFYFDRRVLIKSGENILKGYEEK
Take B4: in data set [3], the Km was determined as 2.3 mM and the kcat was determined as 62 s⁻¹. In data set [4], the Michaelis constant (Km) amounted to 78.4 mM and the kcat stood at 53 s⁻¹.
